B1: PKM2(F244V) (enzyme)
chain: not shown
notes: pyruvate kinase M2 (PKM2), Homo sapiens, Uniprot ID P14618-1; pET28a-His-PKM2(F244V), made from pET28a-His-PKM2(WT); also called AlloHubM F244V; source: E. coli BL21(DE3)pLysS, purified (HisTrap IMAC, thrombin cleavage, Superdex 200 SEC); not shown: His6, N-terminal, cleaved
B2: PKM2(I124G) (enzyme)
chain: not shown
notes: pyruvate kinase M2 (PKM2), Homo sapiens, Uniprot ID P14618-1; pET28a-His-PKM2(I124G), made from pET28a-His-PKM2(WT); also called AlloHubM I124G; source: E. coli BL21(DE3)pLysS, purified (HisTrap IMAC, thrombin cleavage, Superdex 200 SEC); not shown: His6, N-terminal, cleaved
B3: PKM2(C358A) (enzyme)
chain: not shown
notes: pyruvate kinase M2 (PKM2), Homo sapiens, Uniprot ID P14618-1; pET28a-His-PKM2(C358A), made from pET28a-His-PKM2(WT); also called AlloHubM C358A; source: E. coli BL21(DE3)pLysS, purified (HisTrap IMAC, thrombin cleavage, Superdex 200 SEC); not shown: His6, N-terminal, cleaved
B4: PKM2(A327S) (enzyme)
chain: not shown
notes: pyruvate kinase M2 (PKM2), Homo sapiens, Uniprot ID P14618-1; pET28a-His-PKM2(A327S), made from pET28a-His-PKM2(WT); also called AlloHubM A327S; source: E. coli BL21(DE3)pLysS, purified (HisTrap IMAC, thrombin cleavage, Superdex 200 SEC); not shown: His6, N-terminal, cleaved
B5: PKM2(K305Q) (enzyme)
chain: not shown
notes: pyruvate kinase M2 (PKM2), Homo sapiens, Uniprot ID P14618-1; pET28a-His-PKM2(K305Q), made from pET28a-His-PKM2(WT); also called AlloHubM K305Q; source: E. coli BL21(DE3)pLysS, purified (HisTrap IMAC, thrombin cleavage, Superdex 200 SEC); not shown: His6, N-terminal, cleaved

Target: the molecule itself
Assay: native MS; nano-ESI, PKM2 in 200 mM ammonium acetate pH 6.8, with added saturating FBP (10 µM FBP to 10 µM PKM2; 10:1 FBP:PKM2 for the AlloHub mutants); also with 300 µM Phe added before or after FBP

Protein | binding result | stoichiometry N
B1 | binds | 
B2 | binds | 
B3 |  | 4
B4 |  | 4
B5 |  | 4

Reference: article PMC6636998, “Functional cross-talk between allosteric effects of activating and inhibiting ligands underlies PKM2 regulation” (eLife, 2019)
